# Measurements taken from IntAct's records for PubMed 21840486.
# B1: Protein PML (Homo sapiens), P29590-1 (parent)
# chain: MEPAPARSPRPQQDPARPQEPTMPPPETPSEGRQPSPSPSPTERAPASEEEFQFLRCQQCQAEAKCPKLLPCLHTLCSGCLEASGMQCPICQAPWPLGADTPALDNVFFESLQRRLSVYRQIVDAQAVCTRCKESADFWCFECEQLLCAKCFEAHQWFLKHEARPLAELRNQSVREFLDGTRKTNNIFCSNPNHRTPTLTSIYCRGCSKPLCCSCALLDSSHSELKCDISAEIQQRQEELDAMTQALQEQDSAFGAVHAQMHAAVGQLGRARAETEELIRERVRQVVAHVRAQERELLEAVDARYQRDYEEMASRLGRLDAVLQRIRTGSALVQRMKCYASDQEVLDMHGFLRQALCRLRQEEPQSLQAAVRTDGFDEFKVRLQDLSSCITQGKDAAVSKKASPEAASTPRDPIDVDLPEEAERVKAQVQALGLAEAQPMAVVQSVPGAHPVPVYAFSIKGPSYGEDVSNTTTAQKRKCSQTQCPRKVIKMESEEGKEARLARSSPEQPRPSTSKAVSPPHLDGPPSPRSPVIGSEVFLPNSNHVASGAGEAEERVVVISSSEDSDAENSSSRELDDSSSESSDLQLEGPSTLRVLDENLADPQAEDRPLVFFDLKIDNETQKISQLAAVNRESKFRVVIQPEAFFSIYSKAVSLEVGLQHFLSFLSSMRRPILACYKLWGPGLPNFFRALEDINRLWEFQEAISGFLAALPLIRERVPGASSFKLKNLAQTYLARNMSERSAMAAVLAMRDLCRLLEVSPGPQLAQHVYPFSSLQCFASLQPLVQAAVLPRAEARLLALHNVSFMELLSAHRRDRQGGLKKYSRYLSLQTTTLPPAQPAFNLQALGTYFEGLLEGPALARAEGVSTPLAGRGLAERASQQS
# partner: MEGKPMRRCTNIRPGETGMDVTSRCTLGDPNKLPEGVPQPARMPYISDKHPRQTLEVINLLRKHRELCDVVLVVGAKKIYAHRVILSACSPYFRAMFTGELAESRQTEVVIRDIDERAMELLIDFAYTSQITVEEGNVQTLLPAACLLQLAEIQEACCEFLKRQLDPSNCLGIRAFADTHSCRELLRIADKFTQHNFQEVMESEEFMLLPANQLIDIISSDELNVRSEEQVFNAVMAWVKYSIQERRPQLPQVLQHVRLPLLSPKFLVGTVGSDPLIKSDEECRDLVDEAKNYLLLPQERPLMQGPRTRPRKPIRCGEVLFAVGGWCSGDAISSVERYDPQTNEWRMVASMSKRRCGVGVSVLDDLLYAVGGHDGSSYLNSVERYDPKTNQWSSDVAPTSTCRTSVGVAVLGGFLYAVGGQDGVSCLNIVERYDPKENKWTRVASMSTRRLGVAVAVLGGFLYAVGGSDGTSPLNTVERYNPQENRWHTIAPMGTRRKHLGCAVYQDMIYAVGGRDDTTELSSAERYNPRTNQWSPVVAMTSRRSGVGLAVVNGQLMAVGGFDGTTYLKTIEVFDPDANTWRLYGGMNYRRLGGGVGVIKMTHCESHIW
# Variants of: B1
# Details: with klh20_human KLHL20, Q9Y2M5
row,Variant,effect of a mutation on the interaction
1,S518A,disrupting interaction

# Variants of: B1
# Details: with klh20_human KLHL20, Q9Y2M5
# Remark: another data set of the same source
row,Variant,effect of a mutation on the interaction
1,S518A,disrupting interaction
